Source: patent US20130331325A1 (NEW YORK UNIVERSITY, published 2013)

Experiments:
[1] = biological target: T1, ligand-binding domain of human FGFR1c (D142 to R365) (human, UniProt P11362 142-365); experiment: SPR
T1 chain: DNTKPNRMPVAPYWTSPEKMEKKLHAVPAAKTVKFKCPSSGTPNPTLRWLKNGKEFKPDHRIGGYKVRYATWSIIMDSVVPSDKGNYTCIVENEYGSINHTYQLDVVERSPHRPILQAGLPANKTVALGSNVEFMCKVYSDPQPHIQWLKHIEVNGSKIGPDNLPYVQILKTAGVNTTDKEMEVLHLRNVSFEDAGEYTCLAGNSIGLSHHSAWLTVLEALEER

[2] = biological target: T2, ligand-binding domain of human FGFR1c (D142 to R365) (human, UniProt P11362 142-365); experiment: SPR: FGFR1c ligand-binding domain over immobilized FGF21 (FIG. 10C)
T2 construct: range 142-365
T2 sequence (looked up): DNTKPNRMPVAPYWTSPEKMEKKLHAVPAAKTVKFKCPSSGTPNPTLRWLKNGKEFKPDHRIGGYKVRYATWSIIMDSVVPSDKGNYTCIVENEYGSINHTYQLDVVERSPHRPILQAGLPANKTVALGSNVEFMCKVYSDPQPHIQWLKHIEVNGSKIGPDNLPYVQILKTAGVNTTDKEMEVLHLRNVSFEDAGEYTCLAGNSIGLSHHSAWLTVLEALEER
Text: (§1) FIGS. 10A-10D show overlays of SPR sensorgrams illustrating binding of FGFR1c to FGF2 (FIG. 10A), FGF19 (FIG. 10B), FGF21 (FIG. 10C), and FGF23 (FIG. 10D), and fitted saturation binding curves. Increasing concentrations of FGFR1c ligand-binding domain were passed over a biosensor chip containing immobilized FGF2, FGF19, FGF21, or FGF23. […] Increasing concentrations of αKlotho-FGFR1c complex were passed over a biosensor chip containing immobilized FGF23. […] FGF23^C-tail was immobilized on a biosensor chip and increasing concentrations of FGFR1c ligand-binding domain were passed over the chip. Dissociation constants (KDs) given in FIGS. 10A-10E were derived from the saturation binding curves.

[3] = biological target: T3, binary complex of FGFR1c ligand-binding domain with αKlotho ectodomain (human, UniProt P11362 142-365); experiment: SPR
T3 chain 1: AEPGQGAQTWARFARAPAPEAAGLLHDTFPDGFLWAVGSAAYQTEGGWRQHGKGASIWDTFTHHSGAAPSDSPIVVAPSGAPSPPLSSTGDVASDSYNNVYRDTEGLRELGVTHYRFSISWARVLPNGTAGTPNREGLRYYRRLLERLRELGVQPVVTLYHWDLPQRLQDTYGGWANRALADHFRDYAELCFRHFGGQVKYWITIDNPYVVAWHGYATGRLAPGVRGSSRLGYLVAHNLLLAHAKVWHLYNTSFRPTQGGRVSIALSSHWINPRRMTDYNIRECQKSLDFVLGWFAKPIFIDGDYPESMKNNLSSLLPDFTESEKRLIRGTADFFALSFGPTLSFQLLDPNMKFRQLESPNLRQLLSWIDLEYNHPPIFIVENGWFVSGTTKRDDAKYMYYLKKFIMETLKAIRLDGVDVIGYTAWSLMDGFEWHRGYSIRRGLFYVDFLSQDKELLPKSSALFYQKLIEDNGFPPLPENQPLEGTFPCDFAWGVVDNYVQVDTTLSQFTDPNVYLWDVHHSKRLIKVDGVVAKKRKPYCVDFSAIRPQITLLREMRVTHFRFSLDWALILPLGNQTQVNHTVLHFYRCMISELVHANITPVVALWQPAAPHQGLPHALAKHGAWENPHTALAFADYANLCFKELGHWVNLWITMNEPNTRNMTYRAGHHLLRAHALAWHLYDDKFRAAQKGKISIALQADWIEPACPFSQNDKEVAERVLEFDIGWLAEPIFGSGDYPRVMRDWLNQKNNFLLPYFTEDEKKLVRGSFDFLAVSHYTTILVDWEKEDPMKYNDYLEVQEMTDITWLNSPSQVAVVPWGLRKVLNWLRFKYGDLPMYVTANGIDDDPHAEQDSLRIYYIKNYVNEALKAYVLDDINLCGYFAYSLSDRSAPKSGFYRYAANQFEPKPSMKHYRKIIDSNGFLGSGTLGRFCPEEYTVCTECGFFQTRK
T3 chain 2: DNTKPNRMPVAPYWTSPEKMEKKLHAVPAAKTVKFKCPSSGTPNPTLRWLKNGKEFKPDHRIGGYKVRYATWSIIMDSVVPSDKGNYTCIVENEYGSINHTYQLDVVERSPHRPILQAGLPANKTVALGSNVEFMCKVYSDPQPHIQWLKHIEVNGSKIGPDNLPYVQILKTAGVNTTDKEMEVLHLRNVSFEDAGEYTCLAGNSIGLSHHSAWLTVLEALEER

[4] = biological target: T4, binary complex of FGFR1c ligand-binding domain with αKlotho ectodomain (murine; human, UniProt P11362 142-365); experiment: SPR: immobilized FGF23; αKlotho-FGFR1c complex (FIG. 10E) against FGFR1c ligand-binding domain alone (FIG. 10D)
T4 construct: range 142-365; also called αKlotho-FGFR1c complex; binary αKlotho-FGFR1c complex; not shown: C-terminal FLAG tag
T4 sequence 1: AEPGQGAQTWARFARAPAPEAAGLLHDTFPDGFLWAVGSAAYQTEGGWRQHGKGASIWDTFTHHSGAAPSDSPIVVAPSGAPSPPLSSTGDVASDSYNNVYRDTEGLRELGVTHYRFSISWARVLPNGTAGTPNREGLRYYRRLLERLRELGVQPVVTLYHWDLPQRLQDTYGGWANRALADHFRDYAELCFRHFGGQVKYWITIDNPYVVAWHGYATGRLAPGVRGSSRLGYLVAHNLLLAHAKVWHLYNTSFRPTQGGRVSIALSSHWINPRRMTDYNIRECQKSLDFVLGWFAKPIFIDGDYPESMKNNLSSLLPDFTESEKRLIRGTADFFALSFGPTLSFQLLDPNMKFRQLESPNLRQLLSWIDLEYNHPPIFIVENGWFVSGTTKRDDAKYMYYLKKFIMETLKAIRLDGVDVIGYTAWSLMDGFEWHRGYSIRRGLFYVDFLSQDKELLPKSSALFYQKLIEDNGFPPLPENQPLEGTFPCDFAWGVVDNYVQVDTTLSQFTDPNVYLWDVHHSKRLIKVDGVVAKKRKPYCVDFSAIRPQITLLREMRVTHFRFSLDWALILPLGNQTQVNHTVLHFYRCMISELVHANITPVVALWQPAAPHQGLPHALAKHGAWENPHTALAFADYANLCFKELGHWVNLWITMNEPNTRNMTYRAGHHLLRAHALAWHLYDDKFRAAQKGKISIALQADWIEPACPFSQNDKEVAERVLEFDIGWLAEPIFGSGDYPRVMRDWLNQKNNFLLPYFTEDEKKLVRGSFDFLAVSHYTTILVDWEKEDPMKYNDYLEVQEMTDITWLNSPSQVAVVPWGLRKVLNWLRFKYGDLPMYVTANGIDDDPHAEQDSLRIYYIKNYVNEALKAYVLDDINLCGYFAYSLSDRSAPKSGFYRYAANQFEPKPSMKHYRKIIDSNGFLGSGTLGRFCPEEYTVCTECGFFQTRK
T4 sequence 2: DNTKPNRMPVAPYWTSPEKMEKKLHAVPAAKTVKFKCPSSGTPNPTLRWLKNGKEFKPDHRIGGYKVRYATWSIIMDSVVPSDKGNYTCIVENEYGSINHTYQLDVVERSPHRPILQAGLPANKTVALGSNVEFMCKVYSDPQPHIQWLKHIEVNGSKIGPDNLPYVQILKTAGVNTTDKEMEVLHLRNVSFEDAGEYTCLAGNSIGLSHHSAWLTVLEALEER
Text: as §1
In the target tissue, Klotho co-receptors constitutively associate with cognate receptors of endocrine FGFs to offset the inherently low receptor-binding affinity of endocrine FGFs (FIGS. 10B-10D; Kurosu et al., J. Biol. Chem. 282:26687-26695 (2007); Kurosu et al., J. Biol. Chem. 281:6120-6123 (2006); Ogawa et al., Proc. Nat'l. Acad. Sci. U.S.A. 104:7432-7437 (2007); Urakawa et al., Nature 444:770-774 (2006), which are hereby incorporated by reference in their entirety). […]

[5] = biological target: T4, binary complex of FGFR1c ligand-binding …; experiment: SPR competition: increasing chimera with a fixed concentration of αKlotho-FGFR1c complex over immobilized FGF23 (competitor)
Text: FIGS. 7A and 7B show overlays of SPR sensorgrams illustrating inhibition by FGF2^ΔHBScore-FGF23^C-tail (FIG. 7A) or FGF23 (FIG. 7B) of αKlotho-FGFR1c binding to FGF23 immobilized on a biosensor chip. Increasing concentrations of FGF2^ΔHBScore-FGF23^C-tail or FGF23 were mixed with a fixed concentration of αKlotho-FGFR1c complex, and the mixtures were passed over a FGF23 chip. […] FGF2 and αKlotho-FGFR1c complex were mixed at a molar ratio of 15:1, and the mixture was passed over a biosensor chip containing immobilized FGF23. FIGS. 7D and 7E show overlays of SPR sensorgrams illustrating no inhibition by FGF2^ΔHBScore-FGF23^C-tail (FIG. 7D) or FGF23 (FIG. 7E) of βKlotho-FGFR1c binding to FGF21. FGF2^ΔHBScore-FGF23^C-tail or FGF23 were mixed with βKlotho-FGFR1c complex at a molar ratio of 10:1, and the mixtures were passed over a biosensor chip containing immobilized FGF21. […] Wild-type mice and αKlotho knockout mice were given 0.21 mg and 0.51 mg of protein, respectively, per kg of body weight. Data are presented as mean±SEM; **, P<0.01; ***, P<0.001 by ANOVA. […]
To determine whether the FGF2^ΔHBScore-FGF23^C-tail and FGF2^ΔHBScore-FGF21^C-tail chimeras gained the ability to signal in a Klotho co-receptor-dependent, endocrine fashion, it was first analyzed whether these chimeras can form ternary complexes with FGFR1c and Klotho co-receptor. […]

[6] = biological target: T2, ligand-binding domain of human FGFR1c …; experiment: SPR: FGF23^C-tail immobilized on chip, increasing concentrations of FGFR1c ligand-binding domain passed over (FIG. 10F)
Text: as §1

B1: N-terminally hexahistidine-tagged, mature form of human FGF21 (H29 to S209) (ligand)
chain: HPIPDSSPLLQFGGQVRQRYLYTDDAQQTEAHLEIREDGTVGGAADQSPESLLQLKALKPGVIQILGVKTSRFLCQRPDGALYGSLHFDPEACSFRELLLEDGYNVYQSEAHGLPLHLPGNKSPHRDPAPRGPARFLPLPGLPPALPEPPGILAPQPPDVGSSDPLSMVGPSQGRSPSYAS
notes: also called native FGF21; not shown: N-terminal hexahistidine tag
Kd [1]: 2.52 µM
binding result [2]: binds

B2: N-terminally hexahistidine-tagged, mature form of human FGF23 (Y25 to I251) with arginines 176 and 179 replaced with glutamine (ligand)
chain: YPNASPLLGSSWGGLIHLYTATARNSYHLQIHKNGHVDGAPHQTIYSALMIRSEDAGFVVITGVMSRRYLCMDFRGNIFGSHYFDPENCRFQHQTLENGYDVYHSPQYHFLVSLGRAKRAFLPGMNPPPYSQFLSRRNEIPLIHFNTPIPRQHTQSAEDDSERDPLNVLKPRARMTPAPASCSQELPSAEDNSPMASDPLGVVRGGRVNTHAGGTGPEGCRPFAKFI
notes: also called native FGF23; wild-type FGF23; not shown: N-terminal hexahistidine tag
Kd [3]: 0.0274 µM
Kd [1]: 0.648 µM
fold enhancement of the affinity of FGF23 for FGFR1c by αKlotho (against FGFR1c alone) [4]: > 20 fold

B3: FGF2^ΔHBScore-FGF23^C-tail chimera (designed binder)
chain: MAAGSITTLPALPEDGGSGAFPPGHFKDPKRLYCKNGGFFLRIHPDGRVDGVREKSDPHIKLQLQAEERGVVSIKGVSANRYLAMKEDGRLLASKSVTDECFFFERLESNNYNTYRSRKYTSWYVALDQTGQYVLGSKTGPGQKAILFLPMRNEIPLIHFNTPIPRQHTQSAEDDSERDPLNVLKPRARMTPAPASCSQELPSAEDNSPMASDPLGVVRGGRVNTHAGGTGPEGCRPFAKFI
notes: Core domain of FGF2 (M1 to M151, K128D/R129Q/K134V, C78S/C96S) joined to the C-terminal region of FGF23 (R161 to I251, R176Q/R179Q)
binding result [5]: binds

B4: N-terminally hexahistidine-tagged C-terminal tail peptide of FGF23 (S180 to I251) (peptide)
peptide: SAEDDSERDPLNVLKPRARMTPAPASCSQELPSAEDNSPMASDPLGVVRGGRVNTHAGGTGPEGCRPFAKFI
notes: also called FGF23^C-tail; not shown: N-terminal hexahistidine tag
binding result [6]: no binding
